The text below walks through data of the supplement of paper PMC9112550, “Optimization of the antimicrobial peptide Bac7 by deep mutational scanning” (BMC Biology, 2022).
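Note: peptides expressed intracellularly from a pBAD plasmid library in pooled LB shake-flask culture, induced with 0.3% L-arabinose, DNA abundance read by NGS, three biological replicates, DESeq2 with apeglm shrinkage.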

This data set relates to Escherichia coli TOP10. The data set is described as follows: shrunken log2 fold change of peptide-encoding DNA abundance (4.5 h post-induction vs induction); higher = less antimicrobial activity (less host growth inhibition). The settings on record: time post-induction: 4.5 h; library: site-saturation at positions 5, 18, 19, 20.
RRIRWRPPRLPRPRPRPQQEPRP: the “shrunken log2 fold change” value is 0.0149.

For the sequence RRIRTRPPRLPRPRPRPTGIPRP, the “shrunken log2 fold change” value is 0.00119.

Regarding RRIRRRPPRLPRPRPRPNQWPRP, the “shrunken log2 fold change” value is 0.128.

With RRIRKRPPRLPRPRPRPELEPRP, the “shrunken log2 fold change” value was found to be 0.0875.

On to RRIRERPPRLPRPRPRPQKEPRP, for which the “shrunken log2 fold change” value was -0.0239.

Take RRIRNRPPRLPRPRPRPMNYPRP: the “shrunken log2 fold change” value was -0.00918.

With RRIRPRPPRLPRPRPRPAKSPRP, the “shrunken log2 fold change” value was 0.179.

On to RRIRDRPPRLPRPRPRPILMPRP, for which the “shrunken log2 fold change” value turned out to be 0.303.

In the case of RRIRERPPRLPRPRPRPTPIPRP, the “shrunken log2 fold change” value was 0.244.

RRIRTRPPRLPRPRPRPGYMPRP: the “shrunken log2 fold change” value is -0.297.

RRIRFRPPRLPRPRPRPISYPRP: the “shrunken log2 fold change” value was -0.778.

For the sequence RRIRCRPPRLPRPRPRPYMHPRP, the “shrunken log2 fold change” value is -0.31.

As to RRIRERPPRLPRPRPRPASMPRP, the “shrunken log2 fold change” value came out at 0.0524.

With RRIRNRPPRLPRPRPRPRTRPRP, the “shrunken log2 fold change” value was determined as 0.368.

Turning to RRIRERPPRLPRPRPRPCYNPRP, the “shrunken log2 fold change” value was -0.137.

For the sequence RRIRERPPRLPRPRPRPMCIPRP, the “shrunken log2 fold change” value was -0.133.

Consider RRIRQRPPRLPRPRPRPVKKPRP, for which the “shrunken log2 fold change” value is -0.0152.

RRIRCRPPRLPRPRPRPSDGPRP: the “shrunken log2 fold change” value was -0.0084.

As for RRIRTRPPRLPRPRPRPLVCPRP, the “shrunken log2 fold change” value worked out at 0.0682.

As for RRIRCRPPRLPRPRPRPFEVPRP, the “shrunken log2 fold change” value is -0.152.

Consider RRIRCRPPRLPRPRPRPYTIPRP, for which the “shrunken log2 fold change” value is -0.342.

Regarding RRIRPRPPRLPRPRPRPLTHPRP, the “shrunken log2 fold change” value is -0.108.

For the sequence RRIRLRPPRLPRPRPRPESYPRP, the “shrunken log2 fold change” value was -0.266.

Take RRIRHRPPRLPRPRPRPYAQPRP: the “shrunken log2 fold change” value is -0.279.

As for RRIRSRPPRLPRPRPRPYPFPRP, the “shrunken log2 fold change” value was -0.716.

For the sequence RRIRFRPPRLPRPRPRPRGHPRP, the “shrunken log2 fold change” value was 0.348.

Take RRIRQRPPRLPRPRPRPTQLPRP: the “shrunken log2 fold change” value was 0.375.

In the case of RRIRRRPPRLPRPRPRPLPTPRP, the “shrunken log2 fold change” value came to 0.729.

Take RRIRIRPPRLPRPRPRPFKLPRP: the “shrunken log2 fold change” value was -0.597.

Take RRIRKRPPRLPRPRPRPYSAPRP: the “shrunken log2 fold change” value is -0.134.

With RRIRFRPPRLPRPRPRPGPTPRP, the “shrunken log2 fold change” value came out at 0.404.

With RRIRRRPPRLPRPRPRPVHAPRP, the “shrunken log2 fold change” value was 0.67.

In the case of RRIRNRPPRLPRPRPRPWSSPRP, the “shrunken log2 fold change” value is -0.0666.

As for RRIRKRPPRLPRPRPRPVESPRP, the “shrunken log2 fold change” value was 0.0629.

With RRIRQRPPRLPRPRPRPAPHPRP, the “shrunken log2 fold change” value is 0.343.

For the sequence RRIRCRPPRLPRPRPRPRWCPRP, the “shrunken log2 fold change” value is -0.131.

With RRIRFRPPRLPRPRPRPCMVPRP, the “shrunken log2 fold change” value was determined as 1.01.

As to RRIRHRPPRLPRPRPRPNLQPRP, the “shrunken log2 fold change” value was -0.0526.

RRIRKRPPRLPRPRPRPGNIPRP: the “shrunken log2 fold change” value was -0.0196.

Turning to RRIRSRPPRLPRPRPRPGLPPRP, the “shrunken log2 fold change” value turned out to be 0.225.

As to RRIRVRPPRLPRPRPRPSIMPRP, the “shrunken log2 fold change” value was -0.451.

Consider RRIRLRPPRLPRPRPRPMWLPRP, for which the “shrunken log2 fold change” value is -0.0867.

On to RRIRMRPPRLPRPRPRPNSRPRP, for which the “shrunken log2 fold change” value amounted to 0.169.

For the sequence RRIRVRPPRLPRPRPRPTNWPRP, the “shrunken log2 fold change” value is 0.202.

In the case of RRIRGRPPRLPRPRPRPFGKPRP, the “shrunken log2 fold change” value is -0.144.

As for RRIRLRPPRLPRPRPRPQYPPRP, the “shrunken log2 fold change” value was -0.765.

Take RRIRSRPPRLPRPRPRPLKFPRP: the “shrunken log2 fold change” value was -0.0436.

Turning to RRIRFRPPRLPRPRPRPICPPRP, the “shrunken log2 fold change” value was -0.208.

Regarding RRIRERPPRLPRPRPRPYYRPRP, the “shrunken log2 fold change” value is -0.165.

As for RRIRSRPPRLPRPRPRPVLDPRP, the “shrunken log2 fold change” value was -0.058.

As to RRIRARPPRLPRPRPRPDKHPRP, the “shrunken log2 fold change” value is -0.0889.

For RRIRERPPRLPRPRPRPRMNPRP, the “shrunken log2 fold change” value was found to be 0.0757.

Regarding RRIRMRPPRLPRPRPRPQAFPRP, the “shrunken log2 fold change” value stood at 0.0522.

For the sequence RRIRARPPRLPRPRPRPRAIPRP, the “shrunken log2 fold change” value came out at 0.358.

Regarding RRIRERPPRLPRPRPRPKMTPRP, the “shrunken log2 fold change” value was -0.0406.

As for RRIRQRPPRLPRPRPRPAGLPRP, the “shrunken log2 fold change” value was -0.158.

On to RRIRTRPPRLPRPRPRPNCHPRP, for which the “shrunken log2 fold change” value is -0.341.

Regarding RRIRHRPPRLPRPRPRPNSVPRP, the “shrunken log2 fold change” value is -0.00436.

As for RRIRKRPPRLPRPRPRPHAQPRP, the “shrunken log2 fold change” value amounted to 0.133.

For RRIRHRPPRLPRPRPRPRMEPRP, the “shrunken log2 fold change” value is -0.0339.

Consider RRIRIRPPRLPRPRPRPCSYPRP, for which the “shrunken log2 fold change” value is -0.176.

For the sequence RRIRSRPPRLPRPRPRPVSNPRP, the “shrunken log2 fold change” value is -0.0276.

With RRIRCRPPRLPRPRPRPRKVPRP, the “shrunken log2 fold change” value was determined as 0.196.

Regarding RRIRIRPPRLPRPRPRPPCSPRP, the “shrunken log2 fold change” value is -0.339.

Regarding RRIRYRPPRLPRPRPRPPPLPRP, the “shrunken log2 fold change” value is 0.616.

As to RRIRLRPPRLPRPRPRPWCWPRP, the “shrunken log2 fold change” value is 0.0542.

Regarding RRIRERPPRLPRPRPRPSVMPRP, the “shrunken log2 fold change” value was -0.175.

As to RRIRGRPPRLPRPRPRPRILPRP, the “shrunken log2 fold change” value came to 0.404.

RRIRGRPPRLPRPRPRPIYHPRP: the “shrunken log2 fold change” value was -0.1.

With RRIRRRPPRLPRPRPRPMHKPRP, the “shrunken log2 fold change” value came out at 0.299.

In the case of RRIRQRPPRLPRPRPRPWDVPRP, the “shrunken log2 fold change” value is -0.0187.

In the case of RRIRPRPPRLPRPRPRPTGPPRP, the “shrunken log2 fold change” value was 0.212.

RRIRMRPPRLPRPRPRPDHSPRP: the “shrunken log2 fold change” value worked out at 0.318.

With RRIRCRPPRLPRPRPRPNPEPRP, the “shrunken log2 fold change” value stood at 0.448.

For the sequence RRIRDRPPRLPRPRPRPTAGPRP, the “shrunken log2 fold change” value was 0.534.

On to RRIRRRPPRLPRPRPRPATGPRP, for which the “shrunken log2 fold change” value turned out to be 0.222.

In the case of RRIRDRPPRLPRPRPRPERSPRP, the “shrunken log2 fold change” value amounted to 0.239.

Take RRIRRRPPRLPRPRPRPWGHPRP: the “shrunken log2 fold change” value was -0.165.

As to RRIRARPPRLPRPRPRPNVQPRP, the “shrunken log2 fold change” value came out at 0.109.

Regarding RRIRMRPPRLPRPRPRPKCTPRP, the “shrunken log2 fold change” value stood at 0.995.

As to RRIRIRPPRLPRPRPRPYVYPRP, the “shrunken log2 fold change” value was -0.144.

With RRIRIRPPRLPRPRPRPCKTPRP, the “shrunken log2 fold change” value was -0.168.

Regarding RRIRRRPPRLPRPRPRPHFFPRP, the “shrunken log2 fold change” value amounted to 0.149.

RRIRSRPPRLPRPRPRPLKMPRP: the “shrunken log2 fold change” value was found to be 0.127.

On to RRIRSRPPRLPRPRPRPKFEPRP, for which the “shrunken log2 fold change” value is 0.12.

In the case of RRIRGRPPRLPRPRPRPHHNPRP, the “shrunken log2 fold change” value was -0.372.

With RRIRQRPPRLPRPRPRPACKPRP, the “shrunken log2 fold change” value is -0.0465.

As to RRIRLRPPRLPRPRPRPWIPPRP, the “shrunken log2 fold change” value was -0.0167.

Consider RRIRQRPPRLPRPRPRPYWCPRP, for which the “shrunken log2 fold change” value was -0.164.

On to RRIRNRPPRLPRPRPRPDHQPRP, for which the “shrunken log2 fold change” value was 0.113.

RRIRCRPPRLPRPRPRPSILPRP: the “shrunken log2 fold change” value was -0.739.

RRIRKRPPRLPRPRPRPSTDPRP: the “shrunken log2 fold change” value is -0.135.

Turning to RRIRDRPPRLPRPRPRPHHWPRP, the “shrunken log2 fold change” value stood at 0.172.

For RRIRNRPPRLPRPRPRPKMVPRP, the “shrunken log2 fold change” value is -0.13.

Turning to RRIRERPPRLPRPRPRPNNGPRP, the “shrunken log2 fold change” value was -0.0529.

RRIRLRPPRLPRPRPRPHTCPRP: the “shrunken log2 fold change” value was -0.339.

On to RRIRCRPPRLPRPRPRPCSRPRP, for which the “shrunken log2 fold change” value was -0.0999.

Take RRIRYRPPRLPRPRPRPVMQPRP: the “shrunken log2 fold change” value was -0.315.

As to RRIRMRPPRLPRPRPRPCDMPRP, the “shrunken log2 fold change” value was 0.195.

For RRIRWRPPRLPRPRPRPCEAPRP, the “shrunken log2 fold change” value was found to be 0.471.

Turning to RRIRDRPPRLPRPRPRPGKMPRP, the “shrunken log2 fold change” value was determined as 0.0346.

With RRIRHRPPRLPRPRPRPMDCPRP, the “shrunken log2 fold change” value was -0.0499.

In the case of RRIRDRPPRLPRPRPRPMHCPRP, the “shrunken log2 fold change” value was -0.00112.

Take RRIRCRPPRLPRPRPRPTYMPRP: the “shrunken log2 fold change” value is -0.432.

As to RRIRPRPPRLPRPRPRPAYEPRP, the “shrunken log2 fold change” value stood at 0.0834.

RRIRDRPPRLPRPRPRPKVDPRP: the “shrunken log2 fold change” value was -0.118.

In the case of RRIRIRPPRLPRPRPRPQCCPRP, the “shrunken log2 fold change” value is -0.0258.

With RRIRLRPPRLPRPRPRPIDQPRP, the “shrunken log2 fold change” value stood at 0.281.

As to RRIRVRPPRLPRPRPRPYAVPRP, the “shrunken log2 fold change” value is -0.481.

In the case of RRIRTRPPRLPRPRPRPLPIPRP, the “shrunken log2 fold change” value is -0.0647.

On to RRIRERPPRLPRPRPRPDFMPRP, for which the “shrunken log2 fold change” value worked out at 0.0144.

Regarding RRIRYRPPRLPRPRPRPQFTPRP, the “shrunken log2 fold change” value is -0.308.

For the sequence RRIRTRPPRLPRPRPRPDGAPRP, the “shrunken log2 fold change” value amounted to 0.132.

Consider RRIRYRPPRLPRPRPRPNAQPRP, for which the “shrunken log2 fold change” value was -0.0122.

For RRIRRRPPRLPRPRPRPYRMPRP, the “shrunken log2 fold change” value was -0.292.

On to RRIRKRPPRLPRPRPRPICRPRP, for which the “shrunken log2 fold change” value was 0.0069.

On to RRIRYRPPRLPRPRPRPFHHPRP, for which the “shrunken log2 fold change” value was -1.19.

As for RRIRTRPPRLPRPRPRPCGMPRP, the “shrunken log2 fold change” value was -0.0074.

With RRIRFRPPRLPRPRPRPSTDPRP, the “shrunken log2 fold change” value was -0.667.

Take RRIRMRPPRLPRPRPRPPAWPRP: the “shrunken log2 fold change” value worked out at 1.22.

For the sequence RRIRVRPPRLPRPRPRPMMWPRP, the “shrunken log2 fold change” value was -0.368.

As for RRIRGRPPRLPRPRPRPNRRPRP, the “shrunken log2 fold change” value came to 0.332.

Turning to RRIRHRPPRLPRPRPRPTTRPRP, the “shrunken log2 fold change” value was 0.383.

On to RRIRTRPPRLPRPRPRPHYKPRP, for which the “shrunken log2 fold change” value is -0.531.

Regarding RRIRLRPPRLPRPRPRPPADPRP, the “shrunken log2 fold change” value worked out at 0.797.
